Assay results as given in US6255088A, “Enzymatic sulfation of biomolecules” (The Scripps Research Institute, priority 1999, dated 2001).

Tests used:
[1] = substrate: CC(=O)N[C@H]1[C@H](O[C@H]2[C@H](O)[C@@H](NC(C)=O)C(O)O[C@@H]2CO)O[C@H](CO)[C@@H](O[C@@H]2O[C@H](CO)[C@@H](O)[C@H](O)[C@H]2NC(C)=O)[C@@H]1O; test: purified protein, by the assay type; conditions: pH 7.0
[2] = substrate: CC(=O)N[C@H]1[C@H](O[C@H]2[C@H](O)[C@@H](NC(C)=O)C(O)O[C@@H]2CO)O[C@H](CO)[C@@H](O[C@@H]2O[C@H](CO)[C@@H](O[C@@H]3O[C@H](CO)[C@@H](O)[C@H](O)[C@H]3NC(C)=O)[C@H](O)[C@H]2NC(C)=O)[C@@H]1O; test: Continuous spectrophotometric coupled-enzyme assay of NodST with βAST-IV PAPS regeneration; format: biochemical, Rhizobium melioti; conditions: other: apparent value, coupled assay, 20 μM PAPS, pH 7.0
Description: (§1) 100 mM bis-tris propane-HCl, pH 7.0, 5 mM 2-mercaptoethanol, 20 μM PAPS, 2 mM p-nitrophenyl sulfate, 3.0 mU NodST, 6.4 mU β-AST IV, and substrate are combined to a total volume of 500 μL. Because commercial PAPS contains significant amounts of PAP, the assay solution is incubated for 30 minutes at 20° C. prior to addition of substrate. The evolution of p-nitrophenol is monitored at 400 nm for 10 minutes.
(§2) All reactions were run in a total volume of 500 μL at 25° C. […] The amount of NodST added to each series of acceptor concentrations is varied over 1.2, 1.8, 3.0, and 4.2 mU. Because commercial PAPS contains significant amounts of PAP, the assay solution is incubated for 30 minutes at 20° C. prior to addition of substrate. The evolution of p-nitrophenol is monitored at 400 nm for 10 minutes.
(§3) 3.0 mU of NodST was used in each reaction. The Km for each series of PAP concentrations was calculated and the values were compared.

[3] = substrate: CC(=O)N[C@H]1[C@H](O[C@H]2[C@H](O)[C@@H](NC(C)=O)[C@H](O[C@H]3[C@H](O)[C@@H](NC(C)=O)C(O)O[C@@H]3CO)O[C@@H]2CO)O[C@H](CO)[C@@H](O[C@@H]2O[C@H](CO)[C@@H](O[C@@H]3O[C@H](CO)[C@@H](O)[C@H](O)[C@H]3NC(C)=O)[C@H](O)[C@H]2NC(C)=O)[C@@H]1O; test: as above; format: biochemical, Rhizobium melioti; conditions: other: coupled assay; pH 7.0
Description: as §1, §2, §3

[4] = substrate: Nc1ncnc2c1ncn2[C@@H]1O[C@H](COP(=O)(O)O)[C@@H](OP(=O)(O)O)[C@H]1O; test: Reverse-physiological reaction of βAST-IV (PAPS from PAP and p-nitrophenyl sulfate); format: biochemical, rat; conditions: other: 10 mM p-nitrophenyl sulfate, pH 7.0, 25° C., FIG. 6 legend
Description: All capillary zone electrophoresis (CZE) was run in 0.23 M borate in running buffer at pH 7.8. The column was pre-washed with H2 O (1 min), 1 N NaOH (1 min), and running buffer (2 min). The sample was pressure injected at 20 psi sec and electrophoresis was run with 20.0 kV (- to +) at 20° C. with detection at 260 nm. CZE of 1 mM standards PAPS, PAP, and 3'-adenosine monophosphate (3'-AMP) were run to determine retention times. The reverse-physiological reaction assay mixture, a 500 μL solution containing 50 mM bis-tris propane-HCl buffer at pH 7.0, 1 mM 2-mercaptoethanol, 10 mM p-nitrophenyl sulfate, and 1 mM PAP at 25° C., was subjected to CZE prior to addition of enzyme (t=0). 5 mU βAST-IV was added and CZE was repeated 30 minutes after initiation. The reaction was then diluted 100-fold and CZE was run again. A 2.0 μL internal standard of 10 mM PAPS was added, and CZE was repeated.
βAST-IV activity in the reverse-physiological reaction was determined at 25° C. with a total volume of 500 μL. The reverse-physiological assay above was used with varying PAP concentration (15.6, 31.3, 62.5, 125, 250, 500 μM). Measurement of initial velocity was conducted over 10 seconds at 400 nm, and an extinction coefficient of 1064 was used to calculate p-nitrophenol concentration at pH 7.0. […]

[5] = other: apparent value, coupled assay, 20 μM PAPS

Protein | Km ([1]; other: 20, 40 and 100 μM PAPS, all three within 10% variation, 3.0 mU NodST) | Km [1, 5] | kcat [1, 5] | Km [2] | kcat [2] | Km [3] | Km [4]
NodST (Sinorhizobium meliloti 1021) (protein) MTHSTLPPQPFAILAMPRTGTHYLEELVNEHPNVLSNGELLNTYDTNWPDKERLLLSDRELLERAFLRYPPHSDKKVTHVGCKINEPQFQERPSFFAELTAWPGLKVILVIRRNTLESLRSFVQARQTRQWLKFKSDSSAPPPPVMLPFATCEAYFKAADDFHARVVYAFDSSRIRLIEYERLLRDPVPCVATVLDFLGAPALQLADRGILRRQETRPLDQTVRNFHELRVHFANGPYARFFELAND | 243 µM | 103 µM | 0.458 s⁻¹ | 20.4 ± 3.6 µM | 0.328 ± 0.013 s⁻¹ | 98.1 μμM | –
βAST-IV (Rattus norvegicus) (protein, made in house; host or cells: E. coli BL21(DE3)) MEFSRPPLVHVKGIPLIKYFAETIGPLQNFTAWPDDLLISTYPKSGTTWMSEILDMIYQGGKLEKCGRAPIYARVPFLEFKCPGVPSGLETLEETPAPRLLKTHLPLSLLPQSLLDQKVKVIYIARNAKDVVVSYYNFYNMAKLHPDPGTWDSFLENFMDGEVSYGSWYQHVKEWWELRHTHPVLYLFYEDIKENPKREIKKILEFLGRSLPEETVDSIVHHTSFKKMKENCMTNYTTIPTEIMDHNVSPFMRKGTTGDWKNTFTVAQNERFDAHYAKTMTDCDFKFRCEL | – | – | – | – | – | – | 26.4 ± 3.4 µM
